This test deals with SHP2 (UniProt P35235). The test can be described thus: co-immunoprecipitation, Western blot. The following applies: reference: LAIR1 wild type; sites Y251,Y281.

As to “LAIR1 (from UniProt Q6GTX8) LAIR1 Y251/281F”, the “binding against the reference” value is listed as “weaker”.

The record behind these values is PMC10579300.
